Assay results as given in patent US20190016826A1 (Genentech, published 2019).

Assays:
[1] = target: T1, Protease domain of human HtrA1 (HuHtrA1_PD), residues D161-K379 (human, UniProt F1N152 168-386 (bovine entry)); experiment: SPR (BIAcore T100), single-cycle kinetics, biotinylated HuHtrA1_PD captured on streptavidin, Fab in solution
T1 construct: Expressed in E. coli; not shown: thrombin cleavage site between tag and D161
Experimental: Briefly, series S sensor chip CM5 was activated with EDC and NHS reagents according to the supplier's instructions, and streptavidin (Pierce) was coupled to achieve approximately 2000 response units (RU), followed by blocking unreacted groups with 1M ethanolamine.
The sensorgrams were recorded and evaluated by BIAcore™ T100 Evaluation Software (version 2.0) after subtraction of reference cell signal. Association rates (kₒₙ) and dissociation rates (koff) were calculated using a simple one-to-one Langmuir binding model. The equilibrium dissociation constant (KD) was calculated as the ratio […] (see Table 1 below).

[2] = target: T2, R227A; experiment: ELISA on plate-coated HuHtrA1_PD mutants (Example 7); column head on the sheet reads YW505.94 Fab, legend paragraph 70 says IgG94
T2 construct: also called HuHtrA1_PD(R227A)
Experimental: (§1) The mutants were expressed in E. coli and the trimers purified by size exclusion chromatography as described in Example 2. Binding was determined using an ELISA assay, which was conducted using a MAXISORP™ microtiter plate coated with HuHtrA1_PD mutants at 2 μg/ml in PBS for 1 h, followed by blocking with PBST buffer (0.5% BSA and 0.05% Tween 20 in PBS) for 1 h at room temperature. […] The plates were washed with PBT buffer (0.05% Tween 20 in PBS), and HRP-conjugated goat anti-human IgG (H+L) (Invitrogen) was added (1:5000 in PBST buffer) and incubated for 1 h. The plates were washed with PBT buffer and developed by adding tetramethylbenzidine substrate (Kirkegaard and Perry Laboratories, Gaithersburg, Md.). The absorbance at 450 nm was plotted as a function of antibody concentration in solution to determine EC₅₀ values.
(§2) In trypsin-like serine proteases these loops are known to be part of the specificity determining region that interacts with substrates.

[3] = target: T3, D244A; experiment: as above
T3 construct: also called HuHtrA1_PD(D244A)
Experimental: as §1, §2

[4] = target: T4, K248A; experiment: as above
T4 construct: also called HuHtrA1_PD(K248A)
Experimental: as §1, §2

[5] = target: T5, HuHtrA1_PD(S328A), catalytically inactive protease domain of human HtrA1 (human, UniProt F1N152 168-386 (bovine entry)); experiment: as above
T5 construct: Trimer; not shown: thrombin cleavage site
T5 chain: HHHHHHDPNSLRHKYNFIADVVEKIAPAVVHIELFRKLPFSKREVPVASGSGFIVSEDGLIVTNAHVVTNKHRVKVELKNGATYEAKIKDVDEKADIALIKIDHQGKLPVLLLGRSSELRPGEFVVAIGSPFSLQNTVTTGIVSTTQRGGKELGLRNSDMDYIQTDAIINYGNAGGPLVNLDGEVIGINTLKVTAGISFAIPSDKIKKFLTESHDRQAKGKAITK
Experimental: as §1, §2

[6] = target: T6, HuHtrA1_PD(T223A) (human, UniProt F1N152 168-386 (bovine entry)); experiment: as above
T6 construct: Alanine mutant of HuHtrA1_PD; also called HuHtrA1 mutant T223A; not shown: thrombin cleavage site
T6 chain: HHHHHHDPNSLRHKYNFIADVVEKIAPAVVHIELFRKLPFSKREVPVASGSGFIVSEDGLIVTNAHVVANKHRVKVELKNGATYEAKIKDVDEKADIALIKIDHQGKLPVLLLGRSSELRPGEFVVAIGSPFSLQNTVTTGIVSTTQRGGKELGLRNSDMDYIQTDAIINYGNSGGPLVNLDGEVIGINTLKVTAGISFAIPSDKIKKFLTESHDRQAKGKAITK
Experimental: as §1, §2

[7] = target: T7, HuHtrA1_PD(K243A) (human, UniProt F1N152 168-386 (bovine entry)); experiment: as above
T7 construct: Alanine mutant of HuHtrA1_PD; also called HuHtrA1 mutant K243A; not shown: thrombin cleavage site
T7 chain: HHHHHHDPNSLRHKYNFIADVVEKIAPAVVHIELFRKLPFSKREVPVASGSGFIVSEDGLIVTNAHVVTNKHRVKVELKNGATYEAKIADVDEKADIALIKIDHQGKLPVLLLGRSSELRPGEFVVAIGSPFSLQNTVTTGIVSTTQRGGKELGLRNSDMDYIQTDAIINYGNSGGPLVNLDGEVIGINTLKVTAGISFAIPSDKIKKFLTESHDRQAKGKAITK
Experimental: as §1, §2

- Kd [1]: 31.1 nM
- koff [1]: 0.0109 s⁻¹
- kon [1]: 350000 M⁻¹ s⁻¹
- EC50 [2]: 25.9 nM
- Relative to WT EC50 Fold Decrease [2]: 4.6 fold
- EC50 [3]: 4.7 nM
- Relative to WT EC50 Fold Decrease [3]: 0.8 fold
- EC50 [4]: 196 nM
- Relative to WT EC50 Fold Decrease [4]: 35 fold
- EC50 [5]: 2.3 nM
- Relative to WT EC50 Fold Decrease [5]: 0.4 fold
- EC50 [6]: 62.9 nM
- Relative to WT EC50 Fold Decrease [6]: 11.2 fold
- EC50 [7]: 64.9 nM
- Relative to WT EC50 Fold Decrease [7]: 11.6 fold
B1: Fab94 (anti-HtrA1 antibody YW505.94, Fab format) (Fab, V domains shown)
VH: EVQLVESGGGLVQPGGSLRLSCAASGFNISGYYIHWVRQAPGKGLEWVGWIDPYGGDTNYADSVKGRFTISADTSKNTAYLQMNSLRAEDTAVYYCARGTFLTSWGHYFDYWGQGT
VL: DIQMTQSPSSLSASVGDRVTITCRASQDVSTAVAWYQQKPGKAPKLLIYSASFLYSGVPSRFSGSGSGTDFTLTISSLQPEDFATYYCQQSYTTPPTFGQGTKVEIKR
